Experimental data published in patent US20150216990A1 (TUFTS MEDICAL CENTER, published 2015).
The star is where a group is joined. Palmitoyl = CCCCCCCCCCCCCCCC(=O)*

Molecular target: T1, human PAR1 (thrombin receptor) on human platelets (human, UniProt P25116 42-425)
T1 sequence (looked up): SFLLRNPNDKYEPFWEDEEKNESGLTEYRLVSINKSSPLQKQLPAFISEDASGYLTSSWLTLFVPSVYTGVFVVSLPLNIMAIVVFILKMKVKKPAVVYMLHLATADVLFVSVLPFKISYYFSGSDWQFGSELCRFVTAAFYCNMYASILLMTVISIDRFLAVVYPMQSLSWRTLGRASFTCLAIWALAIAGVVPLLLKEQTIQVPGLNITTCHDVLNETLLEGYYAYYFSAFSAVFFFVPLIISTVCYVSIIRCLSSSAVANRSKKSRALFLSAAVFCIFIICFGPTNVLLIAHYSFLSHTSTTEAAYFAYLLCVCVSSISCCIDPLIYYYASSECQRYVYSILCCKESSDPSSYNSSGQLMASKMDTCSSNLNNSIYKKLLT
Assay: cell-based or functional assay

B1: PZ-128 (palmitate-KKSRALF-NH2) (peptide)
peptide: Palmitoyl-KKSRALF-NH2
modifications: also: acetate salt
right shift of thrombin-induced aggregation of human platelets: 5 fold
